Source: the supplement of paper PMC10567573

B1: KCNA3 (parent)
chain: YQSGGRIRRPVNVPIDIFSEEIRF
B2: HDAC6 (parent)
chain: DLMETTQYMNEGELRVLADTYDSV

Variants of: B1
Assay: protein stability index of a GFP-peptide fusion (GPS, HEK-293T) (PSI 1-6); higher = more stable
Conditions: c terminus: a fixed tail appended
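Further: lentivirally expressed fusions sorted by FACS into six bins by GFP to DsRed ratio, PSI derived from sequencing read proportions per bin multiplied by bin number.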

Protein stability index of substitutions, site by site:
Y1: A 3.31, D 3.1, C 2.49

Variants of: B2
Assay: as above
Conditions: c terminus: a fixed tail appended

Protein stability index: each site, then its substitutions
V24: P 2.11, F 1.92, Y 1.49, T 1.63, S 1.56, Q 1.84, W 1.66, E 2.01, K 1.77, I 2.34, D 2.41, A 1.73, H 2.78, N 2.77, M 2.24, R 1.86, C 1.42, L 2.11, G 2.1
D22: C 2.18, A 1.27, L 2.14, Y 2.7, I 2.16, H 2, S 1.55, R 2.91, E 1.57, F 1, Q 2.29, N 1.48, K 1.75, V 1.74, T 1.65, P 1.92, G 1.76
Y21: N 1.61, F 2.24, I 1.79, S 2.26, M 1.44, D 3.31, G 2.66, C 2.2, Q 3.21, A 2.69, W 2, T 3.1, H 1.72, K 2.74, L 1.96, P 2.04
T20: A 2.49, P 1.99, Y 2.06, R 3.07, I 2.91, S 2.13, F 2.27, H 2.71, K 1.96, M 1.62, D 2.83, L 1.04, N 2.21, E 2.41, Q 2.58, W 1.77
L17: M 2.01, P 4.47, I 2.77, N 4.55, G 3.86, V 1.64, F 2.05, Y 1.99, W 2.33, A 2.33, R 2.97, T 3.59, S 4.34, C 3.03, Q 3.11, D 5.03, H 2.12, K 2.75
V16: G 4.03, Y 3.9, A 3.72, P 4.81, W 3.54, M 3.99, R 4.01, N 4.06, T 4.2, E 4.75, C 2.72, Q 4.23, K 3.91, H 4.62, F 3.61, S 4.42, I 2.1, D 4.54, L 3.27
D19: H 2.42, T 1.83, S 2.12, G 2.6, I 2.55, F 2.78, Q 1.92, Y 1.44, R 2.56, L 1.64, N 1.79, E 2.03, K 2.52, P 2.67
A18: F 1.86, E 2.11, R 2.12, H 2.06, S 2.09, Q 1.62, G 2.86, P 3.97, L 1.75, C 2.47, T 1.94, M 1.12, W 1.7, D 2.82, K 2.18, V 2.4, I 1.83, N 1.65, Y 1.87
S23: G 2.72, Q 1.24, H 2.37, E 1.97, N 2.66, R 2.14, I 1.86, D 1.92, T 2.05, K 2.03, P 1.46, C 2.48, L 1.94, W 3.46, Y 1.58, V 1.63, M 2.33
R15: P 4.61, Q 1.76, L 1.5, Y 2.39, S 2.09, N 2.67, V 2.37, M 1.89, T 2.58
